Experimental data: patent US8541367B2, “Plasma anti-diabetic NUCB2 peptide (pladin) and uses thereof” (Landing Biotech, Inc., priority 2009, dated 2013)
Several values for one entry are separate records, joined by “and”; a condition that tells them apart may be missing. Identical values can stand only once. Entries after “also recorded” stand apart in the source; their conditions may differ.

Key:
db/db mice [1] = assay: Food intake and body weight of db/db mice; assay type: in vivo, mouse
db/db mice [2] = assay: Serum nesfatin-1 / pladin in db/db after i.v. plasmin inhibitor (HPLC); assay type: in vivo, mouse; settings: for circulating (serum) nesfatin-1: 30 minutes after i.v. injection
Procedure: Hypothalamus in acetic acid supplemented with protease inhibitor cocktail tablets (Roche, Indianapolis, Ind.) was homogenized, sonicated and heated at 95° C. for 15 minutes. The samples were then centrifuged at 13,200 rpm at 4° C. for 30 minutes. The supernatants were finally collected as their protein contents were determined by the Bradford assay (Thermo-Fisher Sci. Rockford, Ill.). Mouse serum was freshly prepared by drawing blood through ophthalmectomy. About […] hypothalamic total proteins or 25 μL serum were analyzed with Waters Delta 600E/2487/717 HPLC system using an analytical C18 reverse phase column (4.6×250 mm/5 μm, Hambon, Zhangjiagang, CN). Nesfatin-1 was eluted with a linear gradient from 20%-40% solvent B (solvent A: water with 0.1% trifluoroacetic acid, solvent B: acetonitrile with 0.1% trifluoroacetic acid) for 20 minutes at the flow rate of 1 ml/minute. The purified nesfatin-1 was used as the standard to determine the retention time and plot the standard curve. The fraction collected at the retention time was sent for the mass spectrometry analysis.
Mouse serum was freshly prepared by drawing blood through ophthalmectomy. The sera of plg^−/−lepr^−/− and db/db mice were directly analyzed with Waters Delta 600E/2487/717 HPLC System using a C18 reverse phase column (4.6×250 mm, 5 μm, Hambon, Zhangjiagang, CN) and eluted with a linear gradient from 20%-40% acetonitrile in 0.1% TFA for 20 minutes at the flow rate of 1 ml/minute (Enriori et al., 2007). Compared with db/db mice, the divergent fractions eluted in plg^−/−lepr^−/− mice were collected for the determination of molecular weight using the Applied Biosystems 4800 Proteomics Analyzer (Applied Biosystems). The MS spectra were acquired in the liner mode at a range of peptide mass from 3,000 to 20,000 Dalton.

post-surgical patients = assay: AMCA treatment of post-surgical hyperglycemia in patients; assay type: in vivo, human; settings: 10 mg/kg i.v. BID, four post-surgical patients, blood glucose before 10-12 mmol/L
db/db mice [3] = assay: Blood glucose of db/db mice after injection of test substance; assay type: in vivo, mouse; settings: for active duration of anti-hyperglycemic effect in vivo: i.v. injection, hyperglycemic db/db mice; for anti-hyperglycemic effect (blood glucose): peripheral/i.v. injection, dose not stated
db/db mice [4] = assay: as above; assay type: in vivo, mouse; settings: for effect of pre-treatment on the anti-diabetic effect of nesfatin-1: GW9662 0.45 μg/g i.v. or Compound C 20 mg/kg i.p. before 100 ug Nesfatin-1 i.v., blood glucose in 6 hours; for effect of pre-injection on the anti-hyperglycemic effect of rPladin: GW9662 0.45 ug/g i.v., rosiglitazone or Compound C 20 ug/g i.p., then 10 nmol rPladin i.v., 3 hours
Procedure: GW9662, a PPAR-gamma irreversible inhibitor, was i.v. injected into the tail vein of db/db mice at the dose of 0.45 μg per gram body weight. After 30 minutes, 100 ug Nesfatin-1 was injected into the tail vein of db/db mice. Blood glucose was measured in 6 hours.
Compound C, a 5′-AMP-activated protein kinase (AMPK) specific inhibitor, was intraperitoneally injected to db/db mice at the dose of 20 mg per kg body weight. Subsequently, 100 ug Nesfatin-1 was injected into the tail vein of db/db mice. Blood glucose was measured in 6 hours.
(§1) Without anesthesia, mice were placed into a restricting tube. The testing substance such as nesfatin-1 or rPladin was i.v. injected via mice tail vein with a total volume of 150 μL. After that mice were returned to the cages with food and water available freely. In the i.p. injection experiment, mice without anesthesia were injected with the testing substances directly into the peritoneal with a total volume of 200 μL.
db/db mice of 16 to 18 weeks old were i.v. injected with 0.45 ug/g of GW9662 (Sigma, St. Louis, Mo.), i.p. injected with 20 ug/g rosiglitazone (Sigma, St. Louis, Mo.) or 20 ug/g Compound C (Sigma, St. Louis, Mo.), and then randomly assigned to receive the i.v. injection of 10 nmol rPladin or the same volume of saline as the control. Blood glucose was measured at 3 hours after the injection using the glucose meter (Roche, Indianapolis, Ind.).

plasmin = plasmin (Homo sapiens, UniProt P00747); assay: Incubation with plasmin in vitro (proteolysis); assay type: biochemical; settings: for proteolysis by plasmin: incubated with plasmin in vitro
plasmin, sequence (P00747 581-810 limits assumed, species assumed): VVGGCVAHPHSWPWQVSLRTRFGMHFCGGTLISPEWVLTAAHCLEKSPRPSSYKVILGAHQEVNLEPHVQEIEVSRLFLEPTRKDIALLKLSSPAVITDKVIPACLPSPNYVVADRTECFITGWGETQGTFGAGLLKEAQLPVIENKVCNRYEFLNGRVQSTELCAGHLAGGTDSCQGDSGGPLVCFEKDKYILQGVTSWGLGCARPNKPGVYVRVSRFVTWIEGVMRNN
plasmin, sequence (P00747 97-580 partner limits assumed, species assumed): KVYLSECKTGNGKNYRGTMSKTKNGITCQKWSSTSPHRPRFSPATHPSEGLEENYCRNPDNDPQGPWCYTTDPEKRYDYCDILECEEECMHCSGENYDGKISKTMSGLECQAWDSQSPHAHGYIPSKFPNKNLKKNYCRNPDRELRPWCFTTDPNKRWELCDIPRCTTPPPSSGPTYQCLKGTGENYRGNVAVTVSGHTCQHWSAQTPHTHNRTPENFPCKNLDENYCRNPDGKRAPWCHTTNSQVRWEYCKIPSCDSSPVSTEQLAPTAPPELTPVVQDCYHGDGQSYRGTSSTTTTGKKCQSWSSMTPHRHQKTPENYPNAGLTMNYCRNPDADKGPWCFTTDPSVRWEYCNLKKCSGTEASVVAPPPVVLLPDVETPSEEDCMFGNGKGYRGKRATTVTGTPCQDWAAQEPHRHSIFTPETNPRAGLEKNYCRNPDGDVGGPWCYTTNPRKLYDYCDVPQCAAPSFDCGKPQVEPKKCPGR
Text: The recovery of hypothalamic nesfatin-1 in plg^−/−lepr^−/− was consistent to its normalization in food intake and body weight. Fasted mice always had less nesfatin-1 in hypothalamus than their freely feeding counterparties (FIG. 2b). Furthermore, plasminogen deficiency provided a unique approach to study the chronic effect of elevated nesfatin-1 in hyperphagic obese animals, which was impossible for the i.c.v. or i.p. administration due to the short half-time of nesfatin-1. Consequently, agrp and npy were found reduced in plg^−/−lepr^−/−, while pomc was elevated compared with plg^+/+lepr^−/− (FIG. 3), contradicting to the previous report that i.c.v. nesfatin-1 didn't alter the expression of pomc, npy and agrp. Consistent to the present finding, the same group reported the up-regulation of pomc by i.p. nesfatin-1 in NTS recently.
Carefully examining the amino acid sequence of pladin (SEQ ID NO: 23), it has several putative cleavage sites by plasmin (FIG. 11A).

wild-type mice = assay: Intravenous glucose tolerance test (IV-GTT / IGTT) in wild-type mice; assay type: in vivo, mouse; settings: i.v. glucose 1.5 g/kg
Procedure: In the intravenous (i.v.) glucose tolerance test (IV-GTT), mice injected intravenously with 1 mg or 1.5 mg glucose per gram of body weight and placed in clean cages. Blood glucose was measured immediately before and at 5, 10, 20, 30, 60 and 120 minutes after the injection of glucose.

[5] = system: Streptozotocin-induced type-1 diabetic C57BL/6J mice; assay: Streptozotocin-induced type-1 diabetic mice, blood glucose; assay type: in vivo, mouse
Procedure: Male C57BL/6J mice (10 weeks) were given intraperitoneal injections of Streptozotocin (STZ) in sodium citrate (pH 4.5) on two consecutive days (100 mg/kg/day). Blood glucose was measured by tail vein sampling using the glucose oxidase enzymatic test. Diabetes was defined as a morning blood glucose reading of >16 mM after STZ. When blood glucose levels exceeded 30 mM, diabetic mice were given 16 ng of porcine insulin (Wangbang, Xuzhou, CN) immediately to prevent the blood glucose being dangerous every second day to prevent weight loss while maintaining blood glucose levels within the hyperglycemic range (16-30 mM). Nesfatin-1 (100 μg/mouse) was i.v. injected either alone or combined with s.c. insulin (2 ng/mouse) to STZ-induced type-I diabetic mice.
Male C57BL/6J mice (10 weeks) were intraperitoneally injected with 100 μg/g/day STZ in 100 mmol/L sodium citrate (pH 4.5) on two consecutive days. Blood glucose was measured by tail vein sampling using the glucose oxidase enzymatic test. When the fasting blood glucose reading was over 16 mmol/L after the STZ injection, the mice were considered to be type-1 diabetic. […]

[6] = Clearance and half-life of i.v. peptide in circulation; assay type: in vivo, mouse; settings: for clearance from circulation in plg−/− versus wild-type (plg+/+) mice: i.v. injection
ob/ob mice = assay: Blood lipid analysis in ob/ob mice after i.v. injection; assay type: in vivo, mouse; settings: 100 ug i.v., 3 hours after injection
Procedure: One hundred ug Nesfatin-1 was injected into the tail vein of ob/ob mice. Blood samples were taken 3 hours after the injection for lipid analysis.

[7] = in circulation, Pan et al., 2007, Price et al.; cited from earlier work
[8] = i.c.v. or i.p. injection; cited from earlier work
rats = settings: cited from earlier work
[9] = blood-to-brain and brain-to-blood, nonsaturable system; cited from earlier work
lean wild-type mice = assay: Blood glucose of lean wild-type mice after i.v. injection; assay type: in vivo, mouse; settings: 10 nmol i.v.
Procedure: as §1

rat = assay: 0-3 h food intake of rat after i.p. and i.c.v. injection; assay type: in vivo; settings: for food intake: 0-3 h
mice including db/db = assay: Blood insulin in mice after rPladin; assay type: in vivo, mouse
[10] = i.v. plasmin inhibitor to db/db (AMCA 15 mg/day once daily for three days)
[11] = i.c.v. injection (25 pmol), db/db

NC[C@H]1CC[C@H](C(=O)O)CC1 [AMCA, tranexamic acid]
body weight (db/db mice [1]; [10]): reduction
food intake (db/db mice [1]; [10]): reduction
serum pladin (db/db mice [2]; 10 minutes after i.v. 15 mg): increased
circulating (serum) nesfatin-1 (db/db mice [2]): increased
blood glucose after treatment (post-surgical patients): 6.8 to 9.2 mmol/L
fasting blood glucose (db/db mice [3]; once-daily administration for 10 weeks since 2 weeks old, db/db): reduced significantly

c1cc(-c2cnn3cc(-c4ccc(OCCN5CCCCC5)cc4)cnc23)ccn1 [Compound C]
effect of pre-treatment on the anti-diabetic effect of nesfatin-1 (db/db mice [4]): fully inhibited
effect of pre-injection on the anti-hyperglycemic effect of rPladin (db/db mice [4]): abolished; also recorded: prevented

aprotinin
body weight (db/db mice [1]; [10]): reduction
food intake (db/db mice [1]; [10]): reduction
circulating (serum) nesfatin-1 (db/db mice [2]): increased

O=C(Nc1ccccc1)c1cc([N+](=O)[O-])ccc1Cl [GW9662]
effect of pre-treatment on the anti-diabetic effect of nesfatin-1 (db/db mice [4]): fully inhibited
effect of pre-injection on the anti-hyperglycemic effect of rPladin (db/db mice [4]): abolished; also recorded: prevented

B1: nesfatin-1: 82 amino-acid fragment of nucb2 (mouse, SEQ ID NO: 18), recombinant, produced in E. coli (protein)
peptide: VPIDVDKTKVHNTEPVENARIEPPDTGLYYDEYLKQVIEVLETDPHFREKLQKADIEEIRSGRLSQELDLVSHKVRTRLDEL
time to complete digestion by plasmin (plasmin; in vitro, FIG. 1b): ≤ 2 h
proteolysis by plasmin (plasmin): rapidly degraded
uptake of blood sugar (wild-type mice; 100 μg): significantly enhanced the uptake of blood sugar
blood glucose ([5]; 100 μg/mouse i.v. alone or with s.c. insulin 2 ng/mouse): decreased only when nesfatin-1 was injected with s.c. insulin
food intake (db/db mice [1]; 25 pmol i.c.v., db/db mice): significantly inhibited food intake
clearance from circulation in plg−/− versus wild-type (plg+/+) mice [6]: cleared much slower in plg^−/− than plg^+/+ mice
HDL in blood (ob/ob mice): unaffected
LDL in blood (ob/ob mice): significantly reduced
total cholesterol in blood (ob/ob mice): significantly reduced
triglyceride in blood (ob/ob mice): significantly reduced
blood glucose (db/db mice [3]; 10 nmol i.v., freely fed db/db): reduced blood glucose
blood glucose (db/db mice [3]; 100 μg i.v., freely fed db/db): significantly reduced blood glucose
blood glucose (db/db mice [3]; [11]): had no effect on the high levels of blood glucose; also recorded: little diabetic improvement
active duration of anti-hyperglycemic effect in vivo (db/db mice [3]): > 6 h
anti-hyperglycemic effect (blood glucose) (db/db mice [3]; db/db): significantly reduced blood glucose
half-life of nesfatin-1 [7]: 9 to 10 min and 10 min
food intake and body weight [8]: inhibits food intake and thereby reduces body weight
neuropsychological effect (rats): increasing anxiety and fear-related behaviors
crossing of the blood-brain barrier [9]: crosses the Blood Brain Barrier

B2: TKVHNTEPVENARIEPPDTGLYYDEYLKQVIEVLETDPHFREK LQKADIEEIRSGRLSQELDLVSHKVR (protein)
chain: TKVHNTEPVENARIEPPDTGLYYDEYLKQVIEVLETDPHFREKLQKADIEEIRSGRLSQELDLVSHKVR
modifications: amino acids by MALDI-TOF/TOF with Trypsic Peptides
proteolysis by plasmin (plasmin): rapidly degraded; also recorded: completely digested by plasmin
blood glucose (lean wild-type mice): but not in lean wild-type
uptake of blood sugar (wild-type mice; 10 nmol): significantly enhanced the uptake of blood sugar
blood glucose ([5]; 10 nmol per mouse i.v. alone or with s.c. insulin 2 ng/mouse): lowered by rPladin only when insulin was also subcutaneously injected
food intake (rat; 25 pmol i.c.v. per rat): significantly inhibited food intake
food intake (rat; 30 nmol i.p. per rat): significantly inhibited food intake
inhibition of food intake relative to nesfatin-1 (rat; i.v., i.p. and i.c.v. administration): As potent as nesfatin-1; also recorded: same extent of inhibition in food intake as nesfatin-1
food intake (db/db mice [1]; 25 pmol i.c.v., db/db mice): significantly inhibited food intake
half-life in circulation ([6]; data not shown): less than 10 minutes
clearance from circulation in plg−/− versus wild-type (plg+/+) mice [6]: cleared much slower in plg^−/− than wild-type mice
insulin (mice including db/db; i.c.v. injection, db/db mice): could not affect blood glucose and insulin
blood insulin (mice including db/db; i.v. administration, mice including db/db): did not significantly affect
blood glucose (db/db mice [3]; 10 nmol i.v., freely fed db/db): significantly reduced blood glucose
blood glucose (db/db mice [3]; [11]): had no effect on the high levels of blood glucose; also recorded: could not affect blood glucose and insulin
active duration of anti-hyperglycemic effect in vivo (db/db mice [3]): 6 h and > 6 h
anti-hyperglycemic effect (blood glucose) (db/db mice [3]; db/db): significantly reduced blood glucose
anti-hyperglycemic effect after incubation with plasmin (db/db mice [3]; plasmin digested rPladin, db/db (FIG. 11C)): lost
